What was measured:
recombinant human CD16a [1] = target: T1, recombinant human CD16a (human, UniProt P08637 17-208, limits assumed); assay: AlphaScreen, recombinant human CD16a; high glycine batch against control batch
T1 construct: Recombinant human CD16a solution used in the AlphaScreen assay; also called CD16a receptor; human CD16a receptor
Method: (§1) A CD16a binding assay was performed using AlphaScreen (PerkinElmer) method to assess the binding potency of the antibody Fc region of four different antibodies to human CD16a receptor. The antibody solution was first mixed with a recombinant human CD16a solution and assay buffer, and then Alphascreen donor beads and antibody acceptor beads were added. The mixture was incubated in a light protected location for 4 hours at room temperature and the fluorescent signal was detected using a plate reader with laser excitation at 680 nm and light emission 520-620 nm. The binding potency relative to the antibody reference cultured in a basal medium without excess glycine was reported.

recombinant human CD16a [2] = target: T1, recombinant human CD16a; assay: AlphaScreen, recombinant human CD16a in solution; batch: 1 kL control medium
Method: as §1

recombinant human CD16a [3] = target: T1, recombinant human CD16a; assay: AlphaScreen, recombinant human CD16a in solution; batch: 1 kL with extra glycine
Method: as §1

recombinant human CD16a [4] = target: T1, recombinant human CD16a; assay: AlphaScreen, recombinant human CD16a in solution; batch: 100 L with extra glycine
Method: as §1

recombinant human CD16a [5] = target: T1, recombinant human CD16a; assay: AlphaScreen, recombinant human CD16a in solution; batch: 1 kL control (GMP)
Method: as §1

recombinant human CD16a [6] = target: T1, recombinant human CD16a; assay: AlphaScreen, recombinant human CD16a in solution; batch: 100 L control medium
Method: as §1

recombinant human CD16a [7] = target: T1, recombinant human CD16a; assay: AlphaScreen, recombinant human CD16a in solution; batch: 50 L with extra glycine
Method: as §1

recombinant human CD16a [8] = target: T1, recombinant human CD16a; assay: AlphaScreen, recombinant human CD16a in solution; dose response study, batch: 2 L control (2 mM glycine)
Method: as §1

recombinant human CD16a [9] = target: T1, recombinant human CD16a; assay: AlphaScreen, recombinant human CD16a in solution; dose response study, batch: 2 L with extra 5 mM glycine
Method: as §1

recombinant human CD16a [10] = target: T1, recombinant human CD16a; assay: AlphaScreen, recombinant human CD16a in solution; dose response study, batch: 2 L with extra 15 mM glycine
Method: as §1

recombinant human CD16a [11] = target: T1, recombinant human CD16a; assay: AlphaScreen, recombinant human CD16a in solution; dose response study, batch: 2 L with extra 30 mM glycine
Method: as §1

recombinant human CD16a [12] = target: T1, recombinant human CD16a; assay: AlphaScreen, recombinant human CD16a in solution; batch: 2 L control medium
Method: as §1

recombinant human CD16a [13] = target: T1, recombinant human CD16a; assay: AlphaScreen, recombinant human CD16a in solution; batch: 2 L with extra glycine
Method: as §1

recombinant human CD16a [14] = target: T1, recombinant human CD16a; assay: AlphaScreen, recombinant human CD16a in solution; batch: 250 L control medium
Method: as §1

| Binder | increase in binding affinity relative to the control antibody (basal medium, 2 mM glycine) (recombinant human CD16a [1]) | CD16a Binding Relative to Reference (recombinant human CD16a [2]) | CD16a Binding Relative to Reference (recombinant human CD16a [3]) | CD16a Binding Relative to Reference (recombinant human CD16a [4]) | CD16a Binding Relative to Reference (recombinant human CD16a [5]) | CD16a Binding Relative to Reference (recombinant human CD16a [6]) | CD16a Binding Relative to Reference (recombinant human CD16a [7]) | CD16a Binding Relative to Reference (recombinant human CD16a [8]) | CD16a Binding Relative to Reference (recombinant human CD16a [9]) | CD16a Binding Relative to Reference (recombinant human CD16a [10]) | CD16a Binding Relative to Reference (recombinant human CD16a [11]) | CD16a Binding Relative to Reference (recombinant human CD16a [12]) | CD16a Binding Relative to Reference (recombinant human CD16a [13]) | CD16a Binding Relative to Reference (recombinant human CD16a [14]) |
| --- | --- | --- | --- | --- | --- | --- | --- | --- | --- | --- | --- | --- | --- | --- |
| elotuzumab (antibody, human IgG1, kappa, N-linked glycans; the share of non-fucosylated glycoforms differs between batches (control vs high glycine medium), IgG1 made in NS0 cells; also called HuLuc63; HuLuc 63) heavy: not shown light: DIQMTQSPSSLSASVGDRVTITCKASQDVGIAVAWYQQKPGKVPKLLIYWASTRHTGVPDRFSGSGSGTDFTLTISSLQPEDVATYYCQQYSSYPYTFGQGTKVEIKRTVAAPSVFIFPPSDEQLKSGTASVVCLLNNFYPREAKVQWKVDNALQSGNSQESVTEQDSKDSTYSLSSTLTLSKADYEKHKVYACEVTHQGLSSPVTKSFNRGEC | 40 % increase | 100% | 146% | 128% | – | – | – | – | – | – | – | – | – | – |
| enavatuzumab (antibody, human IgG1, kappa, N-linked glycans; the share of non-fucosylated glycoforms differs between batches, Humanized IgG1 to TweakR, made in NS0 cells; Batches differ only in glycoforms; also called PDL192) heavy: not shown light: DIQMTQSPSSLSASVGDRVTITCRASQSVSTSSYSYMHWYQQKPGKAPKLLIKYASNLESGVPSRFSGSGSGTDFTLTISSLQPEDFATYYCQHSWEIPYTFGGGTKVEIKRTVAAPSVFIFPPSDEQLKSGTASVVCLLNNFYPREAKVQWKVDNALQSGNSQESVTEQDSKDSTYSLSSTLTLSKADYEKHKVYACEVTHQGLSSPVTKSFNRGEC | 40 % increase | 96% | – | – | 65% | 110% | 136% | 130 relative to Reference (no unit printed; percent as in Table 15) | 146 relative to Reference (no unit printed; percent as in Table 15) | 151 relative to Reference (no unit printed; percent as in Table 15) | 144 relative to Reference (no unit printed; percent as in Table 15) | – | – | – |
| daclizumab (antibody, human IgG1, kappa, N-linked glycans; the share of non-fucosylated glycoforms differs between batches, Humanized IgG1 to CD25, made in NS0 cells; the entries may be incomplete; also called DAC HYP) heavy: not shown light: DIQMTQSPSTLSASVGDRVTITCSASSSISYMHWYQQKPGKAPKLLIYTTSNLASGVPARFSGSGSGTEFTLTISSLQPDDFATYYCHQRSTYPLTFGSGTKVEVKRTVAAPSVFIFPPSDEQLKSGTASVVCLLNNFYPREAKVQWKVDNALQSGNSQESVTEQDSKDSTYSLSSTLTLSKADYEKHKVYACEVTHQGLSSPVTKSFNR | 40 % increase | – | – | – | – | – | – | – | – | – | – | 69% | 137% | – |
| PDL241 (antibody, human IgG1, kappa, N-linked glycans; the share of non-fucosylated glycoforms differs between batches, Humanized IgG1 to CS1, made in NS0 cells; Batches differ only in glycoforms) heavy: not shown light: DIQMTQSPSSLSASVGDRVTITCKASQDVSTAVAWYQQKPGKAPKLLIYSASYRYTGVPDRFTGSGSGTDFTLTISSLQPEDFATYYCQQHYSTPPYTFGGGTKVEIKRTVAAPSVFIFPPSDEQLKSGTASVVCLLNNFYPREAKVQWKVDNALQSGNSQESVTEQDSKDSTYSLSSTLTLSKADYEKHKVYACEVTHQGLSSPVTKSFNRGEC | 40 % increase | – | – | 137% | – | – | – | – | – | – | – | 147% | 277% | 100% |
